The source of these data is US20250066490A1, “ANTI-CD70 ANTIBODIES, CONJUGATES THEREOF AND METHODS OF USING THE SAME” (ProfoundBio US Co., priority 2021, published 2025).

Where a chain is given by its changes, count along the chain named.

The test system of data set [1] is 786-O, Caki-1, U251 and DBTRG-05MG cells. Description: Antibody binding by flow cytometry, statements across all four tumor cell lines. More on the design: species or system human. The note with it: range over the four cell lines. As to the method:
The lead antibodies were tested for binding to renal carcinoma cells and glioblastoma cells expressing CD70 on the cell surface by flow cytometry. Cell lines 786-O (ATCC® CRL-1932™, provided by COBIOER), Caki-1 (ATCC® HTB-46™, provided by COBIOER), U251 and DBTRG-05MG (ATCC® CRL-2020™, provided by COBIOER) were each tested for antibody binding. 786-O cells were cultured with RPMI 1640 medium (Gibco, Cat #11875093) containing of 10% FBS (Gibco, Cat #10099141) while Caki-1 cells were cultured with McCoy's 5a Modified medium (Gibco, Cat #16600082) containing 10% FBS. U251 cells were cultured with MEM medium containing of 10% FBS and 1% NEAA+1 mM sodium pyruvate. DBTRG-05MG cells were cultured with DMEM medium (Gibco, Cat #C11995500BT) containing of 10% FBS. Each of the lead antibodies and the controls were incubated for 30 mins with the different cell lines (3×10^5 cells per well) in 0.2 ml FACS buffer (1×PBS with 0.1% BSA) at 4° C. Then, the cells were pelleted, washed, and incubated at 4° C. for 30 mins with 100 μl of 1:200 diluted PE-conjugated anti human Fc (Abcam, Ab98596) in FACS buffer. The cells were pelleted again, washed with PBS, resuspended in FACS buffer and analyzed by flow cytometer (Beckman, CytoFLEX).
In general terms: In flow cytometry, cells or beads pass a laser one at a time.

A further data set deals with T1, CD70 ECD (Homo sapiens, UniProt P32970).
T1 sequence (P32970 39-193 limits assumed): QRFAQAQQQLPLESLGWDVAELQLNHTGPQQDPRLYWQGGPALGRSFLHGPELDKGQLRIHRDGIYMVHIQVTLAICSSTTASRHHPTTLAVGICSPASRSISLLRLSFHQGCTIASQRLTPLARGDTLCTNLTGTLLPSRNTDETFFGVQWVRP
The experiment in a line: Biacore affinity measurement on immobilized CD70 ECD. The note with it: 25° C., CD70 immobilized. It counts as binding. As to the method:
The immobilization of antigen CD70 ECD was performed at 25° C. with HBS-EP as the running buffer. Sensor chip surface of flow cells 1, 4 were activated by freshly mixed 50 mmol/L N-Hydroxy succinimide (NHS) and 200 mmol/L 1-ethyl-3-(3-dimethylaminopropyl) carbodiimide hydrochloride (EDC) for 420s (10 μL/min). Afterwards, CD70 antigen diluted in 10 mmol/L NaAC (pH 4.5) was injected into flow cell 4 to achieve conjugation of the appropriate Response Unit, while flow cell 1 was set as a blank. After the amine coupling reaction, the remaining active coupling sites on chip surface were blocked by 420s injection of 1 mol/L ethanolamine hydrochloride.
The assay was performed at 25° C. and the running buffer was HBS-EP. Diluted antibodies were injected over the surface of flow cells 1 and 4 during the association phase, followed by injecting running buffer as the dissociation phase. All the data were processed using Biacore T200 Evaluation software version 3.1. Flow cell 1 and a blank injection of buffer in each cycle were used as a double reference for Response Units subtraction. Kinetic data of the interaction between the antibodies and CD70 antigen were obtained through affinity measurement.
(In general: In SPR one partner is held on a chip, and binding of the other changes the refractive index at the surface.)

Data set [2] is described as follows: Hydrophobic interaction chromatography (HIC). The class given is physicochemical. The note with it: full IgG; for Retention time: hydrophobicity by HIC. As to the method: Antibodies were purified from cleared cell culture supernatants using Protein A chromatography (Protein A resin slurry, 4.5 mL, Bogen, Cat #18-0010-02). Briefly, supernatants were prepared for affinity chromatography and loaded onto the columns and allowed to flow completely through the resin. The columns were washed with binding buffer containing 0.15M NaCl and 0.2M PB, PH7.0. Antibody was eluted with elution buffer containing 0.15M NaCl, 0.1M Glycine and 0.2M PB, PH 3.0. Fractions were collected and neutralized by the addition of 1/10 volume of 1M Tris, PH9.0. The fractions were dialyzed for 2 hours against 1×PBS. Purified antibody was quantified by absorbance at A280. Samples from each step of the protein A chromatography were applied onto 12% SDS-PAGE gels for reduced and non-reduced electrophoresis. The hydrophobicity was assessed with hydrophobic interaction chromatography (HIC) on a TSK gel Butyl-NPR, 4.6×100 mm with Butyl-NPR (Tosoh corporation) using a Waters HPLC 2695 system.

The target in data set [3] is T2, rat CD70 extra-cellular domain (ECD) (Rattus norvegicus, UniProt M0R613).
T2 construct: human, rat, or mouse CD70 extra-cellular domain (ECD) linked to His tag; His tag; purchased ACRO systems
T2 sequence (M0R613 1-194): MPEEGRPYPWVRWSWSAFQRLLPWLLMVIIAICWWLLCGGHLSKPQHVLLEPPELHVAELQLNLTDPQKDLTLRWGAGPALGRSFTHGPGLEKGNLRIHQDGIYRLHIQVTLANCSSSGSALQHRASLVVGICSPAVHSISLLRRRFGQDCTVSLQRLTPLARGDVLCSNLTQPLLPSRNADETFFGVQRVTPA
Description: Biolayer interferometry (BLI), rat CD70. The class given is binding. As to the method:
(§1) Recombinant proteins consisting of human, rat, or mouse CD70 extra-cellular domain (ECD) linked to His tag was purchased (from ACRO systems). 69A7 and 2E7 (20 nM) were immobilized on anti-human IgG Fc biosensor tips (ForteBio). Binding assays using one concentration (100 nM) of recombinant protein in solution were performed using Octet RED (ForteBio). Association time was set at 180s and dissociation time was set at 300s. Binding affinity was calculated using ForteBio Data Acquisition 6.3 software. Affinity was derived by fitting the kinetic data to a 1:1 Langmuir binding model utilizing global fitting algorithms. […] Binding assays for 2E7 using multiple dilutions (from 200 nM down to 3.13 nM) of species' recombinant CD70 ECD proteins in solution were also performed using the same method.

The target of data set [4] is T3, human CD70 extra-cellular domain (ECD) (Homo sapiens, UniProt P32970).
T3 construct: human, rat, or mouse CD70 extra-cellular domain (ECD) linked to His tag; His tag; purchased ACRO systems
T3 sequence (P32970 39-193 limits assumed): T1 sequence (P32970 39-193 limits assumed)
Description: Biolayer interferometry (BLI), human CD70. It counts as binding. As to the method: as §1

The target in data set [5] is T4, mouse CD70 extra-cellular domain (ECD) (Mus musculus, UniProt O55237).
T4 construct: human, rat, or mouse CD70 extra-cellular domain (ECD) linked to His tag; His tag; purchased ACRO systems
T4 sequence (O55237 45-195): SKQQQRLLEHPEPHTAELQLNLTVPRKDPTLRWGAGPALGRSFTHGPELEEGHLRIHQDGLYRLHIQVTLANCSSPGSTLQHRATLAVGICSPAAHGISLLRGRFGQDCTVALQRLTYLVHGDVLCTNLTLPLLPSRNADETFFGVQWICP
Description: Biolayer interferometry (BLI), mouse CD70. The class given is binding. As to the method: as §1
Background: In BLI a coated tip is dipped into the sample, and binding shifts an interference pattern.

The mark [6] stands for this setting: one concentration (100 nM), Table 9.
Where [7] appears, read: Hu CD70 100 nM, one concentration.

B1: 2A4P0L1: new VH/VL combination derived from the VH of 2A4 and the VL of 2D2 (antibody, V domains shown)
VH: QVQLQESGPGLVKPSETLSLTCTVSGGSVSSDYYYWSWIRQPPGKGLEWLGYIYYSGSTNYNPSLKSRVTISVDTSKNQFSLKLRSVTTADTAVYYCARGDGDYGGNVFPYWGQGTLVTVSS
VL: EIVLTQSPATLSLSPGERATLSCRASQSVSSYLAWYQQKPGQAPRLLIFDASNRATGIPARFSGSGSGTDFTLTISSLEPEDFAVYYCQQRLKFPLTFGGGTKVEIK
With B1, the “EC50 relative to that of antibody 69A7” value in data set [1] is listed as 1.7-2.2 times. In the data set with CD70 ECD, the “Rmax (RU)” value amounted to 45.47 RU, the “ka” value stood at 51000 M⁻¹ s⁻¹ and the “kd” value amounted to 0.00197 s⁻¹. Moreover, in data set [2] (HIC), the “hydrophobicity compared with the parent antibody 69A7” value was “slightly more hydrophobic than the parent antibody 69A7”. For the same molecule, the “Retention time” value in data set [2] came out at 9.56 min.

B2: 69A7: parent anti-CD70 antibody (U.S. Pat. No. 8,124,738B2), VH/VL SEQ ID NOs: 1 and 2 (antibody, V domains shown)
VH: B1 VH with V108C, P110D
VL: B1 VL with L92S, K93N, F94W
modifications: Synthetic 69A7 VH amino acid sequence; Synthetic 69A7 VL amino acid sequence
Regarding B2, the Response result in data set [3] (Rat CD70 100 nM, one concentration, *Response below range of quantification) is listed as “*0.0198”; in data set [4] (setting [7]), 0.3334; in data set [5] (MS CD70 100 nM, one concentration, *Response below range of quantification) it was “*0.0113”. Further, the “ka” value in data set [3] (Rat CD70 100 nM, one concentration, response below range of quantification) came out at 94250 M⁻¹ s⁻¹; with CD70 ECD, 6330 M⁻¹ s⁻¹; in data set [4] (setting [7]), 338700 M⁻¹ s⁻¹; in data set [5] (MS CD70 100 nM, one concentration, response below range of quantification) it was 1494 M⁻¹ s⁻¹. For the same molecule, the “cross-reactivity to rat CD70” value in data set [3] (setting [6]) is on record as “no cross-reactivity”. Also, the “Rmax (RU)” value with CD70 ECD is 38.01 RU. Moreover, the “kd” value with CD70 ECD came out at 0.00198 s⁻¹. Besides, the “Retention time” value in data set [2] came out at 8.83 min. In data set [4] (human CD70, one concentration (100 nM), read-out: equilibrium dissociation constant (KD)), the dissociation constant Kd was determined as 2.9 nM. Moreover, the “cross-reactivity to mouse CD70” value in data set [5] (setting [6]) is reported as “no cross-reactivity”.

B3: 2A4: anti-CD70 antibody clone, VH SEQ 3 and VL SEQ 4; scFv and full human IgG1/kappa (antibody, V domains shown)
VH: B1 VH
VL: B1 VL with L92S, K93N, F94W
B3: the “Retention time” value in data set [2] is 9.06 min.

B4: Vorsetuzumab (antibody, V domains shown)
VH: QVQLVQSGAEVKKPGASVKVSCKASGYTFTNYGMNWVRQAPGQGLKWMGWINTYTGEPTYADAFKGRVTMTRDTSISTAYMELSRLRSDDTAVYYCARDYGDYGMDYWGQGTTVTVSS
VL: DIVMTQSPDSLAVSLGERATINCRASKSVSTSGYSFMHWYQQKPGQPPKLLIYLASNLESGVPDRFSGSGSGTDFTLTISSLQAEDVAVYYCQHSREVPWTFGQGTKVEIK
modifications: Synthetic h1F6 VH amino acid sequence; Synthetic h1F6 VL amino acid sequence
For the molecule B4, in the data set with CD70 ECD, the “Rmax (RU)” value was determined as 19.27 RU, the “ka” value came to 45100 M⁻¹ s⁻¹ and the “kd” value was found to be 0.00236 s⁻¹.

By Kd is commonly meant the free concentration of one partner at which half of the binding sites on the other are occupied at equilibrium, for simple one-to-one binding.
